{"source": "patent US20210061911A1", "key": {"[1]": {"biological_target": "Human CD3ε/δ (human) (UniProt P07766)", "sequence (P07766 23-126, stated change not applied, chain 1 of 2)": "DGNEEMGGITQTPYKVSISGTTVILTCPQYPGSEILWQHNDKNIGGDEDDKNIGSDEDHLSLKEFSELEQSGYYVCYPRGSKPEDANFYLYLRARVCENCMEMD", "sequence (P04234 22-105, stated change not applied, chain 2 of 2, further chain)": "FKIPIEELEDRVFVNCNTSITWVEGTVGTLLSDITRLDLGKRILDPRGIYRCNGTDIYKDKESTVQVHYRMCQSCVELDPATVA", "test": "kinetic binding analysis, method not given"}, "[2]": {"biological_target": "Cynomolgus CD3ε/δ (cynomolgus monkey) (UniProt Q95LI5)", "sequence (Q95LI5 22-117, stated change not applied, chain 1 of 2)": "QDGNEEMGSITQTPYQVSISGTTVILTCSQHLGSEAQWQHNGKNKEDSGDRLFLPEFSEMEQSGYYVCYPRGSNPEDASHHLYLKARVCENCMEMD", "sequence (Q95LI8 22-105, stated change not applied, chain 2 of 2, further chain)": "as the sequence (P04234 22-105, stated change not applied, chain 2 of 2, further chain) above, with I5V, N15K, I20V, S32T, D33N, I34N, T64A, S74N, V83L counted along it", "test": "kinetic binding analysis, method not given"}}}
{"binder": "DART-A, sequence-optimized CD123×CD3 bi-specific monovalent diabody (bispecific antibody) chain 1: QAVVTQEPSLTVSPGGTVTLTCRSSTGAVTTSNYANWVQQKPGQAPRGLIGGTNKRAPWTPARFSGSLLGGKAALTITGAQAEDEADYYCALWYSNLWVFGGGTKLTVLGGGGSGGGGEVQLVQSGAELKKPGASVKVSCKASGYTFTDYYMKWVRQAPGQGLEWIGDIIPSNGATFYNQKFKGRVTITVDKSTSTAYMELSSLRSEDTAVYYCARSHLLRASWFAYWGQGTLVTVSSGGCGGGEVAALEKEVAALEKEVAALEKEVAALEK chain 2: DFVMTQSPDSLAVSLGERVTMSCKSSQSLLNSGNQKNYLTWYQQKPGQPPKLLIYWASTRESGVPDRFSGSGSGTDFTLTISSLQAEDVAVYYCQNDYSYPYTFGQGTKLEIKGGGSGGGGEVQLVESGGGLVQPGGSLRLSCAASGFTFSTYAMNWVRQAPGKGLEWVGRIRSKYNNYATYYADSVKDRFTISRDDSKNSLYLQMNSLKTEDTAVYYCVRHGNFGNSYVSWFAYWGQGTLVTVSSGGCGGGKVAALKEKVAALKEKVAALKEKVAALKE", "values": [{"measurement": "Kd", "setting": "[1]", "result": 9, "unit": "nM"}, {"measurement": "koff", "setting": "[1]", "result": 0.005, "unit": "s⁻¹"}, {"measurement": "kon", "setting": "[1]", "result": 570000, "unit": "M⁻¹ s⁻¹"}, {"measurement": "Kd", "setting": "[2]", "result": 9.2, "unit": "nM"}, {"measurement": "koff", "setting": "[2]", "result": 0.005, "unit": "s⁻¹"}, {"measurement": "kon", "setting": "[2]", "result": 550000, "unit": "M⁻¹ s⁻¹"}]}
